# Patent US20160052996A1 (NEURIMMUNE, published 2016)
# T1: JCV VP2 protein (Bioclone Inc) (JC virus (JCV), UniProt P03095 1-344)
# T1 sequence (looked up): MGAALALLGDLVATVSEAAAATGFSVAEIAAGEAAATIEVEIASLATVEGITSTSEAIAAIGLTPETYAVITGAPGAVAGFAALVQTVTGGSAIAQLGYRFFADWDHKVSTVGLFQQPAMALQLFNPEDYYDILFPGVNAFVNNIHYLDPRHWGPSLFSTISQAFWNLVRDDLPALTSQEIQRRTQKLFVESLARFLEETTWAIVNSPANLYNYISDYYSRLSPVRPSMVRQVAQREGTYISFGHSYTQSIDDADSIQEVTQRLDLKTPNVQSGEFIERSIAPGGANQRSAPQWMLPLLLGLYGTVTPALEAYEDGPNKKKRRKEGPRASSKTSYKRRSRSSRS
# T2: JCV VP3 protein (Bioclone Inc) (JC virus (JCV), UniProt P03095 120-344)
# T2 sequence: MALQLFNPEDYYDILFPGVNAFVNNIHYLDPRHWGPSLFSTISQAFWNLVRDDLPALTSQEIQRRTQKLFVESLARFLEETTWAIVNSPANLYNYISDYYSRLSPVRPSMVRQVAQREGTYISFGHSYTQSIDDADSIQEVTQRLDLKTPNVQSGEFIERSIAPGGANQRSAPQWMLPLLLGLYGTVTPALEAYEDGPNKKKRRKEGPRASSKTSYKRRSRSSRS
# B1: NI-307.25G10 (antibody, V domains shown)
# VH: EVQLVESGGGLVQPGGSLRLSCVASGIIFKDYDFHWVRQVKEKGLEWVSAIGTAGDPYYAASVKGRFTVSRENGKNSVYLRMNNVGAGDTALYYCTSGNYFDRGSFRPSAFDMWGQGTMVTVSS
# VL: EIVLTQSPGTLSLSPGERATLSCWASQSVSSNYLAWYQHKPGQAPRLLIFRASRRATDIPERFSAGGSGTDFTLTISRLEAEDSAVYYCQEYGSAPPASITFGQGTRLEIK
# B2: NI-307.26E10 (antibody, V domains shown)
# VH: EVQLVESGGGLVLPGGSLRLSCAVSGFTVRNEYMRWARQAPGRGLEWVSVIYRDGQTHHADTVKGRFDVSKDTSKNTMYLQMHNLRVDDTAIYYCARGHYGPWGQGTLVTVSS
# VL: DIQMTQSPSTLPASVGDRVTITCRASQSINNWLAWYQQKPGKAPNLLIYDASNLETGVPSRFSGSGSGTEFTLTISSLQPDDFATYYCQQYNSHSHTWTFGQGTKVEIK
# B3: NI-307.5H3 (antibody, V domains shown)
# VH: QVQLQESGPGLLKPLGTLSLICDVSGDSISSSNWWSWVRQSPRKGLEWIGEIYHSGRTNYNPSLTNRVTISVDKSKNQFSLNLNSVTAADTGVYYCARWDYYYNNDYYIRGFDIWGQGTMVTVSS
# VL: EIVLTQSPGILSLSPGERATLSCRASQSVDSNYLAWYQQKPGQAPRLLIYSTSTRAAGVPDRFSGSGSGTDFALTISGLEPEDFAVYYCQQWGGSPPITFGQGTRLEIK
# B4: NI-307.78C3 (antibody, V domains shown)
# VH: QVQLQESGPGLVKPSGTLSLTCTVSGGSISGRIWWSWVRQPPGKGLEWIGEIYHSGSTNYSPSLRGRVTISVDTSKQHFSLKMTSVTAADTAMYYCVRGELALGFDSWGQGTLVTVSS
# VL: QSALTQPPSASGSPGQSVTISCTGTSSDVGGYNSVSWYQQHPRRAPKLMIYEVSKRPSGVPDRFSGSKSGNTASLTVSGLQADDEAHYYCSSYAGSNNLVFGGGTMLTVL
# B5: NI-307.57D5 (antibody, V domains shown)
# VH: EVQLVESGGGLAQPGGSLRLSCAGSGFTLSDFAMSWVRRAPGKGLEWVSSLTPSGRNSFYSDSVKGRFTISRDNWKNTLYLEMNLLRPEDTAVYYCARPGAPKNSDSKYSYVRVDFQHWGQGTLVTVSS
# VL: NFMLTQPHSVSESPGRTVTISCTRSSGSIANNFVQWYQHRPGSAPTTLIYEDDQRPSGVPDRFSGSVDSFSNSASLTISGLKTEDEADYFCQSYDNHNWVFGGGTTLTVL
# B6: NI-307.44F6B (antibody, V domains shown)
# VH: EVQLVESGGSVVRPGGSLRLACEVSGLRFDDFAMSWVRQVPGKGLEWIAGIFWNSGGTLYADSVKGRFTISRDNAENSLYLQMNSLRAEDTALYRCVRGRSHAAYYGMDVWGKGTTVTVSS
# VL: EIVLTQSPLSLPVTPGEPASISCRSSQSLLHSNGYNYLDWYLQKPGQSPQLLIYLGSNRASGVPDRFSGSGSGTDFTLTISRVEAEDVGIYYCMQALQNALAFGGGTKLEIK
# B7: NI-307.24C6 (antibody, V domains shown)
# VH: QLQLQESGPGLVKPSGTLSLICVVSGSSIRSNIWWWNWVRQSPGKGLEWIGEIYHSGSTNYSPSLKSRVTMSVDNSKNQFSLKMSSVTAADTAVYFCAINTRTSISGVLYDTFDVWGQGTMVTVSS
# VL: EIVLTQSPATLSLSSGERATLSCRASQSVSGYLAWYQQKPGQAPRLLIYDGSNRATGIPARFSGSGSGTDFTLTISSLEPEDFAVYYCQHRSNWPMYTFGQGTKLEIK
# B8: NI-307.18F4A (antibody, V domains shown)
# VH: EVQLVESGGGLVKPGGSLRLSCAASGFTFTNYYMTWVRQAPGKGLEWVSYITGGGSTTYYADSVTGRFTISRDNAKNSLYLQMSSLRVEDTAVYYCARGRGYPDNWFDPWGQGTLVTVSS
# VL: SYVLTQPPSVSVSPGQTARITCSGDALPKQYVYWYQQKPGQAPVLMIYKDAERPSGIPDRFSGSSSGTTVTLTISGVQAEDEADYYCQSTDISGAAVVFGGGTKLTVL
# B9: NI-307.18E12 (antibody, V domains shown)
# VH: QVQLQQWGAGLLKPSETLSLTCAVYGDSFSGFFWAWIRQTPGTGLEWIGEIQHGGSPTYNPSFESRLTISTDASKSQVSLKMTSVTVTDTAIYYCARCIRGKYGSGSLQLWSQGTLVTVSS
# VL: DIQLTQSPSFLSASVGDRVTITCRASQDINYHLAWYRQKPGKAPDLLIHSAHTLHIGVSSRFSGSGSGTEFTLTIHTLQPEDFATYYCHQPKTFPPTFGGGTKVDIK
# B10: NI-307.61D11 (antibody, V domains shown)
# VH: EVQLVQSGAEVKKPGASVKVSCKTSGYTFIGHYMQWVRQVPGQGFEWMGWINPNTGTTKYALKFKDRVTVTRDTSTATVYMEFHGLTSDDTAVYYCARASAYQLANYDYWGQGTLVTVSS
# VL: QSALTQPASVSGSPGQSITISCAGTSNDVGDDDFVSWYQHQPGKAPRLMIYEVTNRPSGVSTRFSGSKSGNTASLTISGLQAEDEGDYYCMSYTKNSALGYVFGGGTKVTVL
# B11: NI-307.19F8 (antibody, V domains shown)
# VH: EVQLVESGGGLVKPGGSLRLSCAASGFTFSSYYMNWVRQAPGKGLEWVSSISSSSSYIYYADSVKGRFTISRDNAKNSLYLQMNSLTAEDTAVYYCARDPRLQLWFMFDYWGQGTLVTVSS
# VL: QPVLTQPPSASASLGASVTLTCTLSSGYSNYKVDWYQQRPGEGPRFVMRVGTGGIVGSKGDGIPDRFSVLGSGLNRYLTIKDIQEEDESDYHCGADHGSGSNFVYVFGTGTKVTVL
# B12: NI-307.98D3 (antibody, V domains shown)
# VH: EVQLVESGGGVVQPGRSLRLSCAASGFTFSSSAMHWVRQAPGKGLEWVAVISYDGNNQLYADSVKGRLTISRDNSKNALYLQLNSLRTEDTAVYFCARDGGGYSFGTYFFDFWGQGTLVTVSS
# VL: DIQMTQSPSSLSASVGERVTITCRASQRISNYLNWYQQKPGKAPKLLIYAASTLQSGVPSRFSGSGSGTDFTLTISSLQPEDFATYYCQQSYSSPPTFGPGTKVDIK
# B13: NI-307.58C7 (antibody, V domains shown)
# VH: EVQLVESGGGLVKPGGSLRLSCAASGFTFSDYYVNWIRQAPGKGLEWVACISSSGRTIHYADSVKGRFTISRDNAKNSLYLQMNSLRAEDTAFYYCARDLDKAATGRPYFDYWGQGTLVTVSS
# VL: not shown
# Biological target: T3, JCV VP1 VLP (JC virus (JCV), Mad-1 strain, UniProt P03089 1-354)
# T3 construct: also called JCV VP1 VLPs; JCV VP1 (coating with reassociation buffer)
# Test: direct ELISA
row,Binder,EC50 [nM]
1,B1,0.509
2,B2,14.9
3,B3,1.16
4,B4,0.932
5,B5,57
6,B6,0.083
7,B7,2.84

# Biological target: T4, BSA (Sigma-Aldrich) (bovine, UniProt P02769 25-607)
# T4 construct: also called bovine serum albumin
# Test: direct ELISA
# T4 sequence (P02769 25-607 limits assumed): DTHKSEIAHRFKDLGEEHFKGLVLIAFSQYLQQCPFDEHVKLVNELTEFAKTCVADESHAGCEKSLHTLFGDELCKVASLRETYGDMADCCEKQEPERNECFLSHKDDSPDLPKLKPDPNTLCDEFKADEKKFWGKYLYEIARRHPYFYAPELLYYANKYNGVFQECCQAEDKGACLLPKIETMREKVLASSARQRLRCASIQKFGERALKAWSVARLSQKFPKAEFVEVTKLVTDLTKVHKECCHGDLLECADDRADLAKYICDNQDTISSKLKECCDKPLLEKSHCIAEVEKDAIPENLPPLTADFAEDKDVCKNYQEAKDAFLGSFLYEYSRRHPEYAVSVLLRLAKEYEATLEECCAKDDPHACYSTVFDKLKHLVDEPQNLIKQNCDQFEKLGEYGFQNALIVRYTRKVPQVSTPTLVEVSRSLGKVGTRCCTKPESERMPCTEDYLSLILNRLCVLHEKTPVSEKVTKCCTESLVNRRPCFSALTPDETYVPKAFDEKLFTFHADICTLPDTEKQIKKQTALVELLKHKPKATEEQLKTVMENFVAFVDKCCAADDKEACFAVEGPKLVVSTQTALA
row,Binder,binding result
1,B8,no binding
2,B1,no binding
3,B2,no binding
4,B3,no binding
5,B4,no binding
6,B5,no binding
7,B9,no binding
8,B6,no binding
9,B7,no binding
10,B10,no binding
11,B11,no binding

# Biological target: JCV (JC virus produced by infected SVG-A cells) (JC virus (JCV), UniProt P03089 1-354)
# Test: cell-based or functional assay
row,Binder,IC50 of neutralization of the JCV infection of SVG-A cells [ng/mL]
1,B12,0.8

# Biological target: T5, VP1 GCN (N74S R75K T128A L158V K345R Q350deletion T351deletion) (JC virus (JCV), UniProt P03089 1-354)
# T5 construct: whole, on cells
# Test: flow cytometry, transfected 293TT cells
row,Binder,binding result
1,B13,binds

# Biological target: T1, JCV VP2 protein (Bioclone Inc)
# Test: direct ELISA, antigens coated at 1 µg/mL; bar groups labelled 100 nM, 20 nM, 4 nM, 0.8 nM
row,Binder,binding result
1,B1,no binding (tested: 100 nM)
2,B2,no binding (tested: 100 nM)
3,B11,no binding (tested: 100 nM)

# Biological target: T2, JCV VP3 protein (Bioclone Inc)
# Test: as above
row,Binder,binding result
1,B1,no binding (tested: 100 nM)
2,B2,no binding (tested: 100 nM)
3,B11,no binding (tested: 100 nM)

# Biological target: T3, JCV VP1 VLP
# Test: direct ELISA, plate coated with antigen at 5 µg/ml in reassociation buffer (VLP); EC50 by non-linear regression (GraphPad Prism)
row,Binder,EC50 [nM]
1,B8,55
2,B9,19.9
3,B10,17.7
4,B11,6.68

# Biological target: T3, JCV VP1 VLP
# Test: as above
# Remark: another data set of the same source
row,Binder,EC50 [nM]
1,B12,0.00057
